doi:10.1101/324103 (bioRxiv, 2018)

Molecular target: the molecule itself
Test: SEC-MALS + AUC

B1: ammonium transporter AmtB from Escherichia coli (natural protein)
chain: APAVADKADNAFMMICTALVLFMTIPGIALFYGGLIRGKNVLSMLTQVTVTFALVCILWVVYGYSLAFGEGNNFFGNINWLMLKNIELTAVMGSIYQYIHVAFQGSFACITVGLIVGALAERIRFSAVLIFVVVWLTLSYIPIAHMVWGGGLLASHGALDFAGGTVVHINAAIAGLVGAYLIGKRVGFGKEAFKPHNLPMVFTGTAILYIGWFGFNAGSAGTANEIAALAFVNTVVATAAAILGWIFGEWALRGKPSLLGACSGAIAGLVGVTPACGYIGVGGALIIGVVAGLAGLWGVTMLKRLLRVDDPCDVFGVHGVCGIVGCIMTGIFAASSLGGVGFAEGVTMGHQLLVQLESIAITIVWSGVVAFIGYKLADLTVGLRV
For B1, the “stoichiometry N” value was 3.
